Tests used:
Experiment in all cases: holdup assay
Parameters in all cases: key: below the threshold = too weak to quantify, mostly under pKd 3.1 to 4
Details in all cases: plain residues with an end cap or a label only (N-terminal biotin on a linker: ado-ado)
[1] = biological target: Inadl_5, Q8NI35
[2] = biological target: DLG4_3, P78352
[3] = biological target: FRMPD4, Q14CM0
[4] = biological target: T1, LNX2_2, Q8N448
T1 sequence (Q8N448 334-432, limits assumed, looked up): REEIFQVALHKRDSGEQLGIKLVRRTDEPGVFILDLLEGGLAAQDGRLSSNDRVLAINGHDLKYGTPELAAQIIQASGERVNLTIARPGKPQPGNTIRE

[5] = biological target: MAGI1_1, Q96QZ7
Chain of MAGI1_1, Q96QZ7 (Q96QZ7 1-106): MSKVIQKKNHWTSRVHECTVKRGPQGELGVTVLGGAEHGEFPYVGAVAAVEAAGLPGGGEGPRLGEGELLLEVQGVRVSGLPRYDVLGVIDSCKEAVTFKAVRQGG

[6] = biological target: GORASP1, Q9BQQ3
Chain of GORASP1, Q9BQQ3 (Q9BQQ3 1-208): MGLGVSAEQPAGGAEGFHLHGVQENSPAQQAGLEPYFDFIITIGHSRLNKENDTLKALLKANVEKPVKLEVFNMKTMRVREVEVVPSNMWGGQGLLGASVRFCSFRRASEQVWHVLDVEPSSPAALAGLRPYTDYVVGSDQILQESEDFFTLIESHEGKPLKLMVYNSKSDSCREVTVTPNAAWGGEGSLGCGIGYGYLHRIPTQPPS

[7] = biological target: GRIP2_7, Q9C0E4
Chain of GRIP2_7, Q9C0E4 (Q9C0E4 934-1023): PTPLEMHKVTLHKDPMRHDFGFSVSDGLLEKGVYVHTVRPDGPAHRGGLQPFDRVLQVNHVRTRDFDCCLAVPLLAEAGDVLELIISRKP

[8] = biological target: GRIP2_4, Q9C0E4
Chain of GRIP2_4, Q9C0E4 (Q9C0E4 446-548): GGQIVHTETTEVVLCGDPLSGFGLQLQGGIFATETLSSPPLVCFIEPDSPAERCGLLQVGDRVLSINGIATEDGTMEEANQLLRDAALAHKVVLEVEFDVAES

[9] = biological target: T2, HTRA4, P83105
T2 sequence (P83105 378-476, limits assumed, looked up): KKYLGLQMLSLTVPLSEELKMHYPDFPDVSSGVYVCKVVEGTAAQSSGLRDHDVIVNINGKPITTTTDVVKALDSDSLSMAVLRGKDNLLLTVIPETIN

[10] = biological target: MAGI2_2, Q86UL8
Chain of MAGI2_2, Q86UL8 (Q86UL8 410-522): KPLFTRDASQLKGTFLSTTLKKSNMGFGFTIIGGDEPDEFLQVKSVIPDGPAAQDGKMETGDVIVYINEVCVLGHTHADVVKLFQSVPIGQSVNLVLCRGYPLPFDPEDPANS

[11] = biological target: GOPC, Q9HD26
[12] = biological target: Inadl_8, Q8NI35
Chain of Inadl_8, Q8NI35 (Q8NI35 1425-1530): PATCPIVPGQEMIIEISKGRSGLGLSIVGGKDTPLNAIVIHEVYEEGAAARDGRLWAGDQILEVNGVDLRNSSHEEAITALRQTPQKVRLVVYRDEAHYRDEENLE

[13] = biological target: TJP1_2, Q07157
Chain of TJP1_2, Q07157 (Q07157 181-274): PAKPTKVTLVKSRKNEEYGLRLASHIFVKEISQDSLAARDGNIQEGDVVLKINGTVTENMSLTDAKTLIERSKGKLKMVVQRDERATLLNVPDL

[14] = biological target: MAGI2_5, Q86UL8
Chain of MAGI2_5, Q86UL8 (Q86UL8 915-1017): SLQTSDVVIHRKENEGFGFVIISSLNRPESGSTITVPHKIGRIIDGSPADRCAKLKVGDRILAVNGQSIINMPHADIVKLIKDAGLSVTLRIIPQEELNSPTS

[15] = biological target: Inadl_4, Q8NI35
Chain of Inadl_4, Q8NI35 (Q8NI35 547-651): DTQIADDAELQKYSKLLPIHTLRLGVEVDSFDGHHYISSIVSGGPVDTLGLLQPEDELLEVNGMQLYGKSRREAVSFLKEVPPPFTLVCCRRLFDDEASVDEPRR

[16] = biological target: T3, APBA2_2, Q99767
T3 sequence (Q99767 654-744, limits assumed, looked up): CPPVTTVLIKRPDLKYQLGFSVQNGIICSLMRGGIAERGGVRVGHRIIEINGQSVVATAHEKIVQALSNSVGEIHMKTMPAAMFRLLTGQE

[17] = biological target: PDLIM1, O00151
Chain of PDLIM1, O00151 (O00151 1-87): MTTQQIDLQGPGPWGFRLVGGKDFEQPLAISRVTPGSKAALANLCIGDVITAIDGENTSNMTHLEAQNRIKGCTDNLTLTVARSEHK

[18] = biological target: DLG4_1, P78352
Chain of DLG4_1, P78352 (P78352 62-152): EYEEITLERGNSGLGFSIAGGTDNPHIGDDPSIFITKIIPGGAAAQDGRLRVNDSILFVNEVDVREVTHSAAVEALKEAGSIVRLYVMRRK

[19] = biological target: FRMPD3, Q5JV73
Chain of FRMPD3, Q5JV73 (Q5JV73 12-100): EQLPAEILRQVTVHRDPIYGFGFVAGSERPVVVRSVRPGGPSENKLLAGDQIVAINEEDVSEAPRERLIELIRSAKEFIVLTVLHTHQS

[20] = biological target: DLG1_2, Q12959
Chain of DLG1_2, Q12959 (Q12959 314-412): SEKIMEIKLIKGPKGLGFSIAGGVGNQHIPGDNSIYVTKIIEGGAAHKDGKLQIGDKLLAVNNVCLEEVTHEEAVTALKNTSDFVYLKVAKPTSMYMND

[21] = biological target: MAGI2_3, Q86UL8
Chain of MAGI2_3, Q86UL8 (Q86UL8 600-682): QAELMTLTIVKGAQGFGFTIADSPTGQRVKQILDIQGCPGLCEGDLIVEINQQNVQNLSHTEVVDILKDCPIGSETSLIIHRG

[22] = biological target: T4, PDZRN3_1, Q9UPQ7
T4 sequence (Q9UPQ7 244-349, limits assumed, looked up): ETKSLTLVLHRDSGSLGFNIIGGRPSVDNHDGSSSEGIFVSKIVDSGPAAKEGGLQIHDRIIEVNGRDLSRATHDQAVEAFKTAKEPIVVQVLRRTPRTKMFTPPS

[23] = biological target: LAP2, Q96RT1
Chain of LAP2, Q96RT1 (Q96RT1 other isoform, or with tags, fused parts or gaps): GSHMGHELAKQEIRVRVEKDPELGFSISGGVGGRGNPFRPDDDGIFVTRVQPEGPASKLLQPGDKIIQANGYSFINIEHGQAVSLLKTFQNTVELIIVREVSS

[24] = biological target: LDB3, O75112
Chain of LDB3, O75112 (O75112 1-94): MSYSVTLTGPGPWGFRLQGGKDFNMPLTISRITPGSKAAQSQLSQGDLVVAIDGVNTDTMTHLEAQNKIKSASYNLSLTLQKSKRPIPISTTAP

[25] = biological target: GRASP, Q7Z6J2
Chain of GRASP, Q7Z6J2 (Q7Z6J2 96-193): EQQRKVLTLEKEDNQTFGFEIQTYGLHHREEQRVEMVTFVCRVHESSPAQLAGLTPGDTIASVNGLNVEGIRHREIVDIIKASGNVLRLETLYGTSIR

[26] = biological target: T5, LIN7C, Q9NUP9
T5 sequence (Q9NUP9 88-185, limits assumed, looked up): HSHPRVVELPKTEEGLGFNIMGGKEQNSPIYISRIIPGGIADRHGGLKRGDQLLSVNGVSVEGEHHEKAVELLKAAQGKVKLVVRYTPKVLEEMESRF

[27] = biological target: IL16_4, Q14005
Chain of IL16_4, Q14005 (Q14005 1229-1329): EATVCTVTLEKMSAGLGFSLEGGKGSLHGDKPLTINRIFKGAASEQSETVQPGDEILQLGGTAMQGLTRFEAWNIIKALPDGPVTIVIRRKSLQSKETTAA

[28] = biological target: DLG2_3, Q15700
[29] = biological target: LNX1_1, Q8TBB1
Chain of LNX1_1, Q8TBB1 (Q8TBB1 261-371): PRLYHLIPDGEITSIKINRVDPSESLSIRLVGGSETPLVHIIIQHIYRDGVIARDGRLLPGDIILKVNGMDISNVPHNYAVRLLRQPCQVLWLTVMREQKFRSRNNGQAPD

[30] = biological target: IL16_3, Q14005
Chain of IL16_3, Q14005 (Q14005 1107-1207): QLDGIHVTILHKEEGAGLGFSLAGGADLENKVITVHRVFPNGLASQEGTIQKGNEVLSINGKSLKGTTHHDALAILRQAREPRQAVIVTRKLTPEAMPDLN

[31] = biological target: DLG4_2, P78352
Chain of DLG4_2, P78352 (P78352 155-259): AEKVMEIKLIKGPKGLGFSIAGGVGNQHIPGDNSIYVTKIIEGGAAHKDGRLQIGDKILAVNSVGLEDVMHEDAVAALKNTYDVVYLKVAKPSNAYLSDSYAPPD

[32] = biological target: HTRA1, Q92743
Chain of HTRA1, Q92743 (Q92743 360-477): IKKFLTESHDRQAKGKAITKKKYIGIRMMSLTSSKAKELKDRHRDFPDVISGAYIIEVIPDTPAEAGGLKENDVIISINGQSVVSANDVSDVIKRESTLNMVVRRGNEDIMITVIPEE

[33] = biological target: T6, ARHGAP21, Q5T5U3
T6 sequence (Q5T5U3 45-169, limits assumed, looked up): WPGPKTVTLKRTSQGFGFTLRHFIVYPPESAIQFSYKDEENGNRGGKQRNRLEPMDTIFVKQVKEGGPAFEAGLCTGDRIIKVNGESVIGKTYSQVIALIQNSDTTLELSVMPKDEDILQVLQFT

Chain of FRMPD4, Q14CM0 (Q14CM0 67-160): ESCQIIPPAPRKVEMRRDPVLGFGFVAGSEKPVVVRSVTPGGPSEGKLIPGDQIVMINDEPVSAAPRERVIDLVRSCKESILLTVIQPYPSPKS
Chain of Inadl_5, Q8NI35 (Q8NI35 673-780): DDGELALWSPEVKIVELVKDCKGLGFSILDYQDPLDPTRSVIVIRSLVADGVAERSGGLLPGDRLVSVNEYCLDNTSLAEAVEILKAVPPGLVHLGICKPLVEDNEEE
Chain of DLG4_3, P78352 (P78352 306-403): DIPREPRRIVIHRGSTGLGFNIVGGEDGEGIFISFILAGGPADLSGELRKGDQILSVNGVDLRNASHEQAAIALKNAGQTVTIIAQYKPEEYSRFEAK

B1: LSM14A, Q8ND56;Q8ND56-2 (peptide)
chain: EYRKDNKVAA
pKd [1]: below the threshold | pKd [2]: below the threshold | pKd [3]: below the threshold | pKd [4]: below the threshold | pKd [5]: below the threshold | pKd [6]: below the threshold | pKd [7]: below the threshold | pKd [8]: below the threshold | pKd [9]: below the threshold | pKd [10]: below the threshold | pKd [11]: below the threshold | pKd [12]: below the threshold | pKd [13]: below the threshold | pKd [14]: below the threshold | pKd [15]: below the threshold | pKd [16]: below the threshold | pKd [17]: below the threshold | pKd [18]: below the threshold | pKd [19]: below the threshold | pKd [20]: below the threshold | pKd [21]: below the threshold | pKd [22]: below the threshold | pKd [23]: below the threshold | pKd [24]: below the threshold | pKd [25]: below the threshold | pKd [26]: below the threshold | pKd [27]: below the threshold

B2: VAC14, Q08AM6 (peptide)
chain: GDHLDRRVVL
pKd [1]: 3.48 | pKd [2]: below the threshold | pKd [28]: below the threshold | pKd [29]: below the threshold | pKd [3]: 3.82 | pKd [4]: 3.48 | pKd [5]: below the threshold | pKd [30]: 3.58 | pKd [6]: 3.77 | pKd [7]: 3.53 | pKd [8]: below the threshold | pKd [9]: 3.92 | pKd [10]: below the threshold | pKd [11]: below the threshold | pKd [12]: below the threshold | pKd [13]: below the threshold | pKd [31]: below the threshold | pKd [14]: below the threshold | pKd [15]: below the threshold | pKd [32]: 4.25 | pKd [16]: below the threshold | pKd [33]: 3.54 | pKd [17]: below the threshold | pKd [18]: below the threshold | pKd [19]: below the threshold | pKd [20]: 3.98 | pKd [21]: 3.54 | pKd [22]: below the threshold | pKd [23]: 3.93 | pKd [24]: below the threshold | pKd [25]: below the threshold | pKd [26]: 4.04 | pKd [27]: below the threshold

B3: PPP1R3G, B7ZBB8 (peptide)
chain: LRYARPADAL
pKd [1]: below the threshold | pKd [2]: below the threshold | pKd [28]: below the threshold | pKd [29]: below the threshold | pKd [3]: 3.66 | pKd [4]: below the threshold | pKd [5]: below the threshold | pKd [30]: below the threshold | pKd [6]: below the threshold | pKd [7]: below the threshold | pKd [8]: below the threshold | pKd [9]: 3.92 | pKd [10]: below the threshold | pKd [11]: below the threshold | pKd [12]: below the threshold | pKd [13]: below the threshold | pKd [31]: below the threshold | pKd [14]: below the threshold | pKd [15]: below the threshold | pKd [32]: 3.67 | pKd [16]: below the threshold | pKd [33]: 3.9 | pKd [17]: below the threshold | pKd [18]: below the threshold | pKd [19]: below the threshold | pKd [20]: 3.53 | pKd [21]: below the threshold | pKd [22]: below the threshold | pKd [23]: below the threshold | pKd [24]: below the threshold | pKd [25]: 3.47 | pKd [26]: below the threshold | pKd [27]: below the threshold

B4: NDE1, Q9NXR1;Q9NXR1-2 (peptide)
chain: KSTTRSSSSC
pKd [1]: below the threshold | pKd [2]: below the threshold | pKd [29]: below the threshold | pKd [3]: below the threshold | pKd [4]: below the threshold | pKd [5]: below the threshold | pKd [30]: below the threshold | pKd [6]: below the threshold | pKd [7]: below the threshold | pKd [8]: below the threshold | pKd [9]: below the threshold | pKd [10]: below the threshold | pKd [11]: below the threshold | pKd [12]: 4.18 | pKd [13]: below the threshold | pKd [31]: below the threshold | pKd [14]: below the threshold | pKd [15]: below the threshold | pKd [32]: below the threshold | pKd [16]: below the threshold | pKd [33]: below the threshold | pKd [17]: below the threshold | pKd [18]: below the threshold | pKd [19]: below the threshold | pKd [20]: below the threshold | pKd [21]: below the threshold | pKd [22]: below the threshold | pKd [23]: below the threshold | pKd [24]: below the threshold | pKd [25]: below the threshold | pKd [27]: below the threshold
